Measured values reported in the RNAGym collection of RNA variant scans (doi:10.1073/pnas.2313332121).

B1: TPR t1 (parent)
chain: GACCAAUCUGCCCUCAGAGCUCGAGAACAUCUUCGGAUGCAGAGGAGGCAGGCUUCGGUGGCGCGAUAGCGCCAACGUCCUCAACCUCCAAUGCAUCCCACCACAUGAUGAUGCCUGAAGAGCCUUGGUUUUUUG

Variants of: B1
Assay: polymerase ribozyme fitness, log enrichment relative to wild type (log ratio); higher = more active; in vitro selection for triplet polymerase activity
Method in brief: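 Mutant libraries of each subunit of a heterodimeric triplet polymerase ribozyme were built by PCR and transcribed. Each library went through one round of in vitro selection in triplicate: annealing with biotinylated primer, partner subunit and triplets, frozen incubation at −7 °C, gel excision of extended constructs, streptavidin-bead capture and RT-PCR. Input and output libraries were Illumina-sequenced; only genotypes with ≥10 input reads and ≥1 read per output were kept. Fitness is log2(genotype enrichment/wild-type enrichment), using inverse-variance-weighted replicate averages.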

Variant | polymerase ribozyme fitness (log ratio)
C20G C49G | -5.11
U14A A37G G120A | -0.881
U106G C124A | 1.19
C70U C123G | 0.306
G44A C64U G128C U132C | -2.96
C56U A121G | 1.94
A5U C70G U106A C114U | -5.21
C22G G44U U109G G110C | -5.8
C73G C104U | -0.454
G10U G77A C79U C94U | -0.432
C12A U14G U81C G93C A119U G120C | -0.255
G52A G61A | -0.531
G10C G52C G77U A121U | 0.617
A95U C102U U125G | -4.42
U38G C64U A66C A90U A91C U132A | -3.61
C11U C115A | -0.908
C11G U96A U129G | -2.87
G71A U129A | -1.76
A41U C53U U112G | -2.23
C11G C56U A111U | -2.23
A5G C49G U116G G117C | -3.05
G36A A46U A83G | -3.05
C11A C101A | -3.16
C22G A29C A84C | -3.73

Variant | polymerase ribozyme fitness (log ratio)
G35C C56U | -4.82
C4A A6C C53A C82A G117C | -7.24
G10U G71U | -0.746
U38C A46G | -3.03
C49U A74C G122A | -1.62
C12A G113C U126C | -3.59
A6U C34U | -4.08
C49U G61U U78G | -0.458
G45U C72G C114A | -2.66
C12U C28U C53G U129A U130C | -2.76
C73G A95C | -2.83
C13G A26G C70U C99U A119U | -4.5
G47C C49A A111U | -5.94
C73A A119U U132C | -0.485
U9A A43U C76A C85G G120A U130C | -1.48
C53U C88A G110C | -4.54
C82G A84U | 0.00652
C22A G42A C73A | -7.34
C13G C40G C85G C89G C123G | -4.99
C40U G60U | -0.21
C82A U129A | -2.69
G117A C123G | -1.9
A119U C124A | 1.28
C11G A29G G61U C94G | -2.6

Variant | polymerase ribozyme fitness (log ratio)
A50U U59A G60C C80G C88U | -2.26
G52U C72U U78C | -0.804
C28U C123A | -1.91
U7G C124U | 1.55
A16U C94U C101U U116C G128U U132A | -5.42
A6C A37G G47C C64U U87A G120C C124G | -2.79
U14A G47C | -2.72
G77A U78G | -0.219
U109C U126A | -4.99
C15U C34A C123U | -3.01
A24C C73G A83U C114G | -6.1
C4U C62U A91U G120A | -2.44
C13G A105U U112C | -2.47
G57U C123A | 0.124
G107C G120U | -3.85
U33A G69A C79A A121G | -6.8
C82A | -0.485
U21A U38G C56A U78C | -1.08
G52U C82G | -2.18
C8U G61C U116A | -3.22
A119C C123G | -1.25
U92G A121C C123G | -0.349
C49U C86U C88G C115G | -4.09
C28U G113C C123G | -3.9

Variant | polymerase ribozyme fitness (log ratio)
A50G C123U | 1.02
U78C C97G C104A | -4.78
C56U C73U U109A | -4.36
U7C G36U G47C G48C | -2.23
U9G C34A C73A G120C | -0.727
A83C G93A A111C G113U | -4.96
C28U G39U G71C C99U G120A | -4.64
U7A G39C A74G G107U G120U U130C | -4.02
G39A G113C A119U | -3.54
G10C G128C | -3.1
G39U G63U A121U G135A | 0.925
C8A C114G | -2.41
G45U C49U G69U A121U G128C | -1.32
G45U G93A | -1.79
A2U C11U | -2.95
C62A U109C | -4.04
U9G A27G G60A A66C U78G G113U | -6.12
C72A C85U C104U | 0.563
A43U U78C G93A | -1.95
C12U C34U C72A U81C C102U U109G | -5.97
C13U A29G G52U A74C | -1.84
U59C G110U | -1.54
A18U C70G C79A | -7.76
G42A A43U U96A | -2.41

Variant | polymerase ribozyme fitness (log ratio)
G25C G69U G110C | -7.38
C64U U129G | -1.46
G36U G44A U59A G60A G77C U112C | 0.0936
G47U C85G A111C | -2.87
U81C C88A A90U C104G G120U | -7.44
U59C U112A | -0.182
A108G A111C | -1.58
C3A C72A C88G U92G G127U | -2.7
A26U C49G | -3.57
G39U U112C G127A | -0.476
C34G C49U | -6.27
U14C C72A A111U | -6.13
A18C U78C | -1.87
A50C G71U U87A | -1.95
C11G G57A G58A C62A G63A | -3.98
U14G C70G | -3.6
G61C C115G | -4.37
A37U C64U U132C | -0.703
G47U C49G A50C G57U | -1.42
A6U G61U G117A | -0.538
A2U A50C C70U C101U | -3.18
G10A C70U C79U C82G G120C G128U | -2.34
A43U C56A C73A U109A | -5.95
C102U C124G | 0.125

Variant | polymerase ribozyme fitness (log ratio)
G48A G57A G69U | -0.155
C13A A18C G36A G42U A84C | -4.45
C12U G77C U81G | -1.21
C11G C80U C101A | -0.977
C72G G77U | -1.71
U7C A46C G60U | -0.333
G110U U133C | 0.02
C99U U133G | -2.59
G135U | -0.939
C40A G63A A84U | -2.88
C3U C12U | -1.59
A91C U112A | -0.47
A5G G48U G61A U81A C82A G127C | -1.97
C8G A16G C56G A83C | 0.0154
G61U C89G A91U C124U | -0.422
U32A C88A C89A A119G | -4.6
G35U G45U G61U C97A C123G | -5.69
A16G C70U C82G | -2.05
U59G C86U U112C | 1.02
C11U U78C C94U | -1.61
A26U G135U | -4.2
A50U G52A | -2.66
G35A C56U C72U | -4.68
C3U C22A G36U G71C A84U C123A | -5.28

Variant | polymerase ribozyme fitness (log ratio)
C40U A50U G52U U87A C102A U106A A118G | -7.38
C62A A105C | -3.71
C34A G47U G61A C86U | -4.04
C22G C56U C104A | -2.51
U106C U132A | -0.182
U54A C102U | -2.1
C28G C40U C53U C56G A91C C115U U129A | -5.15
A6U C13G A74U C88U C97U G117C C124G U132A | -3.99
C20A U92G G122U | -4.6
C8G C40A C49G G52U G120C U132A | 0.561
C20U C40A G69C C94G G120U | -5.2
G39U C70U G117C G128A | -5.92
U14G A27G G113A A121G U133A | -1.42
G58C C123G G128A | 0.535
A27C G45U U106C | -4.75
G110C U130G | -6.34
C56G A74U G110A U116G C124G G135U | -5.19
C8A U14G G61U C123A U131A G135U | 1.21
C56A A84C | -1.1
C22U C72A C79A | -5.61
U106A C114G U133C | -2.16
C13U A16C | -0.368
C53A G63U C114U | -5.9
